Holding throughout (assay): cryo-EM structure
Test [1] has as its target PltBd2 in the endogenously expressed DiaT holotoxin purified from S. diarizonae (S. diarizonae).
For test [2], the target named is PltBd1 recombinantly expressed in E. coli as part of a holotoxin (S. diarizonae).
Test [3] concerns the target PltBd2 recombinantly expressed in E. coli as part of the PltBd2 homopentameric holotoxin (S. diarizonae).

With “PltBd1 in the endogenously expressed DiaT holotoxin purified from S. diarizonae (natural protein)”, the stoichiometry N (PltBd1 per PltBd2 (3:2)) in test [1] came out at 1.5.

As for “PltBd1 recombinantly expressed in E. coli as part of a holotoxin (natural protein)”, the stoichiometry N (as a rule, the number of molecules, sites or subunits per partner or assembly) in test [2] is 5.

Regarding “PltBd2 recombinantly expressed in E. coli as part of the PltBd2 homopentameric holotoxin (natural protein)”, the stoichiometry N in test [3] came to 5.

The values are drawn from publication PMC12629460.
